Measurements: the supplement of paper PMC11246515
± gives the standard deviation of the averaged measurements.

Experiment: total protein half-life in vivo (active degradation + dilution); higher = more stable protein
[1] = E. coli NCM3722 delta-clpP delta-lon delta-hslV, growth: N-lim chemostat, doubling time 6 h
[2] = E. coli NCM3722 delta-lon, growth: N-lim chemostat, doubling time 6 h
[3] = E. coli NCM3722 delta-smpB, growth: N-lim chemostat, doubling time 6 h
[4] = wild type E. coli NCM3722, growth: C-lim chemostat, doubling time 3 h
[5] = wild type E. coli NCM3722, growth: C-lim chemostat, doubling time 12 h
[6] = E. coli NCM3722 delta-clpP, growth: N-lim chemostat, doubling time 6 h
[7] = E. coli NCM3722 delta-hslV, growth: N-lim chemostat, doubling time 6 h
[8] = wild type E. coli NCM3722, growth: C-lim chemostat, doubling time 6 h
[9] = wild type E. coli NCM3722, growth: N-lim chemostat, doubling time 6 h
[10] = wild type E. coli NCM3722, growth: N-lim chemostat, doubling time 12 h
[11] = wild type E. coli NCM3722, growth: P-lim chemostat, doubling time 6 h
[12] = wild type E. coli NCM3722, growth: P-lim chemostat, doubling time 12 h

Row | Sequence | total protein half-life in vivo [1] | total protein half-life in vivo [2] | total protein half-life in vivo [3] | total protein half-life in vivo [4] | total protein half-life in vivo [5] | total protein half-life in vivo [6] | total protein half-life in vivo [7] | total protein half-life in vivo [8] | total protein half-life in vivo [9] | total protein half-life in vivo [10] | total protein half-life in vivo [11] | total protein half-life in vivo [12]
1 | MSQIFAYCRISTLDQTTENQRREIESAGFKIKPQQIIEEHISGSAATSERPGFNRLLARLKCGDQLIVTKLDRLGCNAMDIRKTVEQLTETGIRVHCLALGGIDLTSPTGKMMMQVISAVAEFERDLLLERTHSGIVRARGAGKRFGRPPVLNEEQKQAVFERIKSGVSISAIAREFKTSRQTILRAKAKLQTPDI | 5.84 ± 0.17 h | 3.81 h | 1.43 h | 1.59 h | 4.26 h |  |  |  |  |  |  | 
2 | MIHSSVKRWGNSPAVRIPATLMQALNLNIDDEVKIDLVDGKLIIEPVRKEPVFTLAELVNDITPENLHENIDWGEPKDKEVW [P0AE72] | 5.19 ± 0.15 h | 3.17 h | 2.35 h |  |  | 2.31 ± 0.28 h | 2.17 h | 5.66 h | 1.94 h | 5.05 ± 2.4 h | 1.3 h | 4.48 h
3 | MNKRDAINHIRQFGGRLDRFRKSVGGSGDGGRNAPKRAKSSPKPVNRKTNVFNEQVRYAFHGALQDLKSKPFATFLTVMVIAISLTLPSVCYMVYKNVNQAATQYYPSPQITVYLQKTLDDDAAAGVVAQLQAEQGVEKVNYLSREDALGEFRNWSGFGGALDMLEENPLPAVAVVIPKLDFQGTESLNTLRDRITQINGIDEVRMDDSWFARLAALTGLVGRVSAMIGVLMVAAVFLVIGNSVRLSIFARRDSINVQKLIGATDGFILRPFLYGGALLGFSGALLSLILSEILVLRLSSAVAEVAQVFGTKFDINGLSFDECLLLLLVCSMIGWVAAWLATVQHLRHFTPE [P0AC30] | 6.31 ± 0.59 h | 6.55 ± 0.64 h | 6.02 ± 0.32 h | 3.17 ± 0.15 h | 12.5 ± 2.4 h | 6.43 ± 0.28 h | 6.04 ± 0.071 h | 5.86 ± 0.36 h | 6.42 ± 0.099 h | 12.3 ± 1.8 h | 5.99 ± 0.82 h | 13.5 ± 1.3 h
4 | MKITVLGCGALGQLWLTALCKQGHEVQGWLRVPQPYCSVNLVETDGSIFNESLTANDPDFLATSDLLLVTLKAWQVSDAVKSLASTLPVTTPILLIHNGMGTIEELQNIQQPLLMGTTTHAARRDGNVIIHVANGITHIGPARQQDGDYSYLADILQTVLPDVAWHNNIRAELWRKLAVNCVINPLTAIWNCPNGELRHHPQEIMQICEEVAAVIEREGHHTSAEDLRDYVMQVIDATAENISSMLQDIRALRHTEIDYINGFLLRRARAHGIAVPENTRLFEMVKRKESEYERIGTGLPRPW [P0A9J4] |  | 3.4 h | 3.22 ± 0.64 h |  | 4.51 h |  |  |  | 3.03 h |  | 5.73 ± 0.2 h | 
5 | MRIHSPYPASWALAQRIGYLYSEGEIIYLADTPFERLLDIQRQVGQCQTMTSLSQADFEARLEAVFHQNTGESQQIAQDIDQSVDLLSLSEEMPANEDLLNEDSAAPVIRLINAILSEAIKETASDIHIETYEKTMSIRFRIDGVLRTILQPNKKLAALLISRIKVMARLDIAEKRIPQDGRISLRIGRRNIDVRVSTLPSIYGERAVLRLLDKNSLQLSLNNLGMTAADKQDLENLIQLPHGIILVTGPTGSGKSTTLYAILSALNTPGRNILTVEDPVEYELEGIGQTQVNTRVDMSFARGLRAILRQDPDVVMVGEIRDTETAQIAVQASLTGHLVLSTLHTNSASGAVTRLRDMGVESFLLSSSLAGIIAQRLVRRLCPQCRQFTPVSPQQAQMFKYHQLAVTTIGTPVGCPHCHQSGYQGRMAIHEMMVVTPELRAAIHENVDEQALERLVRQQHKALIKNGLQKVISGDTSWDEVMRVASATLESEA | 6.61 h |  |  |  |  |  |  |  |  |  |  | 
6 | MSTLRLLISDSYDPWFNLAVEECIFRQMPATQRVLFLWRNADTVVIGRAQNPWKECNTRRMEEDNVRLARRSSGGGAVFHDLGNTCFTFMAGKPEYDKTISTSIVLNALNALGVSAEASGRNDLVVKTVEGDRKVSGSAYRETKDRGFHHGTLLLNADLSRLANYLNPDKKKLAAKGITSVRSRVTNLTELLPGITHEQVCEAITEAFFAHYGERVEAEIISPNKTPDLPNFAETFARQSSWEWNFGQAPAFSHLLDERFTWGGVELHFDVEKGHITRAQVFTDSLNPAPLEALAGRLQGCLYRADMLQQECEALLVDFPEQEKELRELSAWMAGAVR | 4.61 ± 0.64 h | 5.74 ± 1.3 h | 4.227 ± 0.0072 h | 2.93 ± 0.24 h | 11 ± 0.56 h |  | 4.05 ± 0.39 h | 5.88 ± 0.59 h | 4.8 ± 0.4 h | 7.13 ± 0.78 h | 5.78 ± 0.2 h | 11.9 ± 0.67 h
7 | MKSVLKVSLAALTLAFAVSSHAADKKLVVATDTAFVPFEFKQGDKYVGFDVDLWAAIAKELKLDYELKPMDFSGIIPALQTKNVDLALAGITITDERKKAIDFSDGYYKSGLLVMVKANNNDVKSVKDLDGKVVAVKSGTGSVDYAKANIKTKDLRQFPNIDNAYMELGTNRADAVLHDTPNILYFIKTAGNGQFKAVGDSLEAQQYGIAFPKGSDELRDKVNGALKTLRENGTYNEIYKKWFGTEPK [P0AEQ3] | 4.537 ± 0.04 h | 6.824 ± 0.065 h | 6.44 ± 0.68 h | 3.38 ± 0.19 h | 11.8 ± 1.3 h | 6.03 ± 2.1 h | 6.84 ± 0.17 h | 6.48 ± 0.26 h | 6.43 ± 0.32 h | 13.1 ± 0.91 h | 6.13 ± 0.34 h | 14.08 ± 0.14 h
8 | MSNNIRIEEDLLGTREVPADAYYGVHTLRAIENFYISNNKISDIPEFVRGMVMVKKAAAMANKELQTIPKSVANAIIAACDEVLNNGKCMDQFPVDVYQGGAGTSVNMNTNEVLANIGLELMGHQKGEYQYLNPNDHVNKCQSTNDAYPTGFRIAVYSSLIKLVDAINQLREGFERKAVEFQDILKMGRTQLQDAVPMTLGQEFRAFSILLKEEVKNIQRTAELLLEVNLGATAIGTGLNTPKEYSPLAVKKLAEVTGFPCVPAEDLIEATSDCGAYVMVHGALKRLAVKMSKICNDLRLLSSGPRAGLNEINLPELQAGSSIMPAKVNPVVPEVVNQVCFKVIGNDTTVTMAAEAGQLQLNVMEPVIGQAMFESVHILTNACYNLLEKCINGITANKEVCEGYVYNSIGIVTYLNPFIGHHNGDIVGKICAETGKSVREVVLERGLLTEAELDDIFSVQNLMHPAYKAKRYTDESEQ [P0AC38] | 5.54 ± 0.31 h | 1.68 ± 0.16 h | 1.68 ± 0.45 h | 2.42 ± 0.11 h | 6.58 ± 0.62 h | 5.5 ± 1.1 h | 1.13 ± 0.052 h | 4.284 ± 0.012 h | 3.1 ± 0.18 h | 2.93 ± 0.087 h | 4.79 ± 0.14 h | 9.237 ± 0.036 h
